The values below come from US20150216891A1 (INSTITUT NATIONAL DE LA SANTE ET DE LA RECHERCHE MEDICALE …, published 2015).

In this assay the target is T1, Translationally-Controlled Tumor Protein (TCTP) (human, UniProt P13693 1-172).
T1 construct: Endogenous TCTP in LNCaP cell lysates, immunoprecipitated with rabbit anti-TCTP antibody (Abcam); also called translationally-controlled tumour protein
T1 sequence: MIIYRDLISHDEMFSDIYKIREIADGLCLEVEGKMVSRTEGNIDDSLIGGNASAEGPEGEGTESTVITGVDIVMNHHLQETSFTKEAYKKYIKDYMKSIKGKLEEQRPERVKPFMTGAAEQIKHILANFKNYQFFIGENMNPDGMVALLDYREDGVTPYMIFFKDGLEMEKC
The experiment in a line: not named at this place (co-immunoprecipitation of Example 12).

B1: Hsp27 C1 deletion mutant (amino acids 93 to 205 of SEQ ID NO: 16), histidine-tagged (other, not shown: small tags and cut ends)
chain: DRWRVSLDVNHFAPDERTVKTKDGVVEISGKHEELQDEHGYISRCFTRKYTLPPGVDPTQVSSSLSPEGTLTVEAPMPKLATQSNEITIPVTFESRAQLGGPEAAKSDETAAK
notes: Transiently expressed in LNCaP cells
Consider B1, for which the binding result was “binds”.
